Assay results published in the DeepSol protein solubility set.

Test: soluble on expression in E. coli; label from the status in PepcDB or PDB records

Sequence	soluble on expression in E. coli
MSLNPVNGAILSIEISHPNGFEIDENISAYHDAEYYMDRIFDSGNYDSLIVLTSIKILSQHWEIDNDMVVTSQSIRQLAIDTINSKAESGTIKNYWFKLQSLCEEFKNLSQETLSLSVFDNQVLTLNVNGHGIFRKSAFFESFANQKLNSADGKLMLIFNKFETFISRKSYHKLHEELLQLRKISANEITNLFTKHIEGKISTNEIQTILKDLEQIPGIVEIVKSLIGSSGFELIVDANSISSKELGAFHKISTVMIFKNIMETHKTLLLDLVVLFLTCETNDQIVEFVNQIRATLVQYDVMEVVFTTCLNKGEVETKNMGQVQNSIFWSSVVATHSQLKRLIESLQLNDGYEYFYNNVLPDDYLVDVVIELINNKEYFFLQKKFLTKLNQEGHHHHHH	not soluble
MSLNRLSIPYSNKSLDYYFFVIQEASVKRAVLARSGEFQATNANFDNTRQLEQWQSLLLSRPSAIISDPIDSQAIVSAIRRYNREKIPVGIIDTPADGGDVAITVSFDNFQGGVMAAEEIVNRLITRYGRPKGTVLNCYGALASVAWRLRKEGMDSVFAKYPGITYLARPTDGQLEKMLSVTLSTLSEYPDLDAVHAPSDSPSRGIVTALQQKGRWKKIGEAGHVIFVNIDGEPIALKWIQDGYMDACISQDPVAYGEIAVDMIVKHALKGEAVPLGTYQDKKYFWESGEIVQGKTGPTLIIPAFVINRDNVQDPRHWASVAEKTWGIPEGHHHHHH	soluble
MSLNSISHIPKAEIHVHLEATITPSLCRKFAKRNKVILSDDFFGSEYAYQWEDFYDFLKKYDIVTSVIHTPEDYYELTYAYLKECASHNVLYVEAMVSSTHAKAKGMTYQSFLDSIQEASLNAERDFGIVSRYLMNGIRHLGPESVQGTAEEVLKNPHPAIVGFGLAGDELHFPPHLFSKTFDMLKEENFPITVHAGEWDGPENIRKAINLLHPTRLGHGVRSIEDLDLVKEIIEKDIVLETCPTSNIATKIYENYENHPVKKLHELGAKVTVNSDDPPFFNATIQGEYEAMSKIGFADDVLISMTRNAIEYSFLDNQKKKEVLTKLNEGHHHHHH	soluble
MSLNSNHKQPIFDNVLNRKFQVNEPNRAYVSDMTYIPTHEGWLYLTVVIDLFSRKVVGWNMSSRMKADTVCDALTMAIWQRKPKAGLIVHSDRGSQYASKQYRSLLNQHGLVGSMSKKGDCWDNSVAESFFSRLKDELVHWRNYQTRREAKQDILDYMTMFYNNQRLHSSLDYLSPNQFENRYWGLMKKVAEGHHHHHH	soluble
MSLNTPQSAIIPDHAQAGIFIEADFAANRLNDIKAACRASLDALTALKARFPDDILGLTIAFGSKAWATFGHTDEGSEIKPFSEMGNGLAPSTQHDMSIHIQSFRQNAAYALAQSVLGAFGDSICVASEEHGLRLYQDRGLDGFVDGTENPQGDENVREVAIIPEGKPDAGGSYVLLQKYLHDLKKWDAVPVAEQEASVGRGKETDDEFGRDVRLPDSHLGRVNLKENGVGLKIVRRSLPFGKISGEHGLMFTAYCRTLHNIEAQLLSMFGDTDGKTDLLLRHLSAAVSGGYYYAPSVERLQNLEGGSHHHHHH	soluble
MSLNTVLRLPLKYPSTNKELKSHEYFESQIAYTGCLIATTTHMVDHISWRLNNDLKTITLTPICISNPFQLECRTISLLLPSQVYPHCIDAVYHGEEGGYLVVDVIDENYLWITLRIEMNDFLHNTKNFRPLTLDQFESWGHISVPYSFELRSNPYCLRVLDERNVVVSLKDGGLLHFQRSSVLADFNVFNCEESAHFHLGGILDGIFKSGRADLTVDGVSSNAAIDATIVPDPSKSLIATLTVSKTIKFWDLKEHSLLRERTIHPQDTNTWLSFGPARYLQCYGNVLGVHSLLQTKHSTSIDFWDVSPLKEDQKSYKILHTVELLSPTINGAPSDSPFSNDIWFIQDFTLKFEKGNFTVLWKSNNSSILTIYDLKNLAENDKPPKLSQWTLSGSEGHHHHHH	not soluble
MSLNVIDTLPAFRDYCSELASSHGSLAADAERASGFRYGHEDWLVQFKRDGAGIGLLDPQALAAAGADWNDFNRAVGDAVWILHDSLQDLPGFDELGMEPQRLFDTEIAARLLGLKRFGLAAVTEHFLGLTLAKEHSAADWSYRPLPRDWRNYAALDVELLIELETKMRAELKRQGKMEWAQEEFDYALKEGLGPRKEHLIPWMHVSHITEVMRDRQALAIVRALWTRRDELAREYDIAPTLLLSDSSIIEVAKRKPHNAAQFRSIRSINERVRIHTDSEQDKMFERYAPIQRKIKPSMWKNIIQDALALPPSEWPDVDGGAARRHESQSASAPKSIRVWKERYPERLQVLNRVRKAVSQIAEDTRTPVEIVIKPQYLRNLCWTDEPRKRDVARFLSEQGARDWQVSLVAESVSRAIEGHHHHHH	not soluble
MSLNYLSGQAANPRGIIGEITTKIWSSYFEDLSKWTINNTEMAGVTKVLDVGYGGGSNVKNLVNLDQNLTIYGIDISKESYKTASALNKKAISDGKVKLTVADVADMDYREESFDLVYAIQTHMYWDNLQKGFEEIYRVMSQEGVLILSSEKDKIDYHMDEYKTTASLTALLKEIGFREVVEKEKGNWVLYTVKKEGHHHHHH	soluble
MSLPDTSPDLPAMSPLAVYRQAVEQRGFAPDEAQRRAAEALERCFQALHEAHRHGAIQGVYLWGPVGRGKTWLMDHFYQCLRVPARRQHFHHFMQWVHQRQFELTGTADPLRALARELARDVRVLCFDELFVSDIGDAILLGSLLRIMFEEGVVLVATSNQPPEQLYADGFNRERFLPAIEAIQRHMAVVAVDGGQDHRLHPGRAEQRYWVVEAGQASGFAELFARLSAGEAASTQPIELGHRPLAVHRHSESVLWCSYAQLCEAPLSALDFIGLCDRYRAILMDDLPCLSASQREGRIARGTEDGAQLVEAGDRELPQLSVHDDGVRRFIALVDECYDRKVPLYLEARVPLEALYTEGYLAFAFRRTLSRLREMQLARFGSDSEGGSHHHHHH	soluble
MSLPIRIDKKLPAVEILRTENIFVMDDQRAAHQDIRPLKILILNLMPQKMVTETQLLRHLANTPLQLDIDFLYMESHRSKTTRSEHMETFYKTFPEVKDEYFDGMIITGAPVEHLPFEEVDYWEEFRQMLEWSKTHVYSTLHICWGAQAGLYLRYGVEKYQMDSKLSGIYPQDTLKEGHLLFRGFDDSYVSPHSRHTEISKEEVLNKTNLEILSEGPQVGVSILASRDLREIYSFGHLEYDRDTLAKEYFRDRDAGFDPHIPENYFKDDDVNQVPCLCWSSSAALFFSNWVNHAVYQETPFDWRKIEDDASAYGYLEGHHHHHH	soluble
MSLQAPMALVPVRTIYPGEAISPEQVKSVEVTNPNISAGYASDISEVEGMISKQTLLPGRTIPIAALREPSLVVRGTSVKLVFHIGNMTLMASGTPMSDGSLGEVVRVRNIDSGVMVSGTVMKDGTIQVMAKEGHHHHHH	soluble
MSLQENRLKYCIQRMATVFEVSLSGYYDWLKRGMSKRKQHHNRCELLVKSAHMDTQQSYGHERLHQHLTSQGHDISLYMVRQIKQEHGIYCKRHKRSKVTTDSNHNKPVYPNLLEQQFDVAAPNIAWVSDITYIWTNEGWVYLAAFKDLYSKEIVGYALNKRMTADLVCEALNNAIKYKRPARGLIVHSDRGSQYCSHQYRQIIDKYGFAGSMSRKGNCYDNAPIESFWGQLKNELIYHKVYETRDEAIKDVVRYIEIFYNRQRIQKGLGFKSPTQVFQDFYRQAAEGHHHHHH	not soluble
MSLQFYSVQTNTLKLATTTFNAEGSMLLSTHWTLNLGFSYNPWNFSDTRKIKHFLIEPGARYWFWQTYAGSFISMYAMGARYNVAWDGLLGGDYRYQGWGYGAGMTYGRSWLLSKRWNMEVEAGLGLLVAPYTKYRCEHCGDKVKSGTYFLPTPKLAFNLVYLFEGHHHHHH	not soluble
MSLQGKFQPTWESLANYKIPEWFRNVKFGIWAHWGPQCVEGSGDWMARSLYMENSPEYRHHIANYGHPSEFGFKDIIPLWKAEKWDPDKLVAFYKKIGAQYFFALGNHHDNMDLWDSKYQPWNSVNMGPKKDILKGWERAARKHGLYFGVSLHADHAWSWYETSQRHDTQGPKKGIPYDGKLTKADGKGKWWEGYDPQDLYAQNHPLSQDSWDNGTIHRQWAWGNGVCLPTQEYCTNFYNRTLDVINRYNPDLLYFDVTVAPFYPISDAGLKIAAHFYNHNMSMQKGKLNAVMFGKILDANQRKALVWDVERGAPNKIIDEPWQSCSCLGGWHYNTSIYNNNQYKSAADVVKLLVDIVSKNGNLLLSVPLRADGTFDEKEEKILNEFGNWMNINKEAIYQTRPWKIFGEGPIADKDVQLNAQGFNEWAYSKADAKEIRFTQTDKNLYATVLGWPEDGKILIRSLAEGNGLYPTKIGRVELLGYGKVSFTRTDKGLVVDIPAKSLKNIAPVLKIRKEGHHHHHH	soluble
MSLQGPNPIITVYSTQDYPILHAELASQVYLMDQVEQWENMISQRLSANPSVAAQQASQIFQSAEWKQSEEQLKRSYQGLISGWQNGIKKVPAVLFQYPGKEDSVIYGETNIAQALSLWQREITKEGTREGHHHHHH	soluble
MSLQIAQVLVDVPTMQTNRPYSYRIPTAWQSQVQPGMRVVVPFGRGKRRVQGFVLALDDVTNFDGELKPIDAVVDLAPVLNTEALALTKWLAASTFSFQITCAQTMLPAVMRAKYEKQLRTTATTPATIRTTLFGDQSMVPFDDVATTPAIVSQLLRLQAAGQVDVYYQVKNQARRKTQTAVKAALTNEALQAAVDQVRAGATQQLAVLQGLLTLNGEQLSQKAFCTRFDVTDGAIRTAVQKGWLKKVAVEVYRDPYATSDIKTTKALQLNDEQQVAVDQITQAVDQAATTTFLLEGVTGSGKTEVYLQSMAAALVQGKTALMLVPEISLTPQMVQRVKGRFGKAVAVLHSGLSSGEKYDEWRRIQRGEAQVVVGARSAVFAPLKNLGLIVMDEEHESTYKQDDAPRYHARQVALWRSRYHNCPVVLGSATPSLETRARAEKGVYQRLLLADRVNRRPLPKVSIIDMKKEMQQHAESNFSAPLLVALQDRLERHEQSVLMLNRRGYSSFVLCRDCGFVLKCPNCDISLTLHMDTHTMKCHYCGHEEAIPRNCPNCHSRQIRYYGTGTEKVEEELQDLLPDANIIRMDNDTTRKKGAHAKLLAQFGSGEADILIGTQMIAKGLDFPNVTLVGVLNADTALGLPDFRASERTFQLLTQVSGRAGRAEKSGHVYIQTFNPDHYAIRFAQHHDYEGFFKYEMQMRHRGGYPPYYFTVQITASDLDEGVAAKRMYQLLQWLRPRLAPSTILLGPTPKPIARVNRRYYYQIVIKYKQEPNLAQTLTTLLHETQAQQRQGLQIGIDVEPLHFMEGHHHHHH	soluble
MSLQKPKIAFIDDEPRILRSLKMHFRQSHDVFITTDASELMKYVSEHDVQVVISDQRMPDKQGTEVLRDIKAASPNTLRILLTGYADLNAVIDSVNEGEIYRYITKPWQNDELKQIVNKATEIAQQTQEITQNTEGHHHHHH	not soluble
MSLQKVKLPLTLDPVRTAQKRLDYQGIYTPDQVERVAESVVSVDSDVECSMSFAIDNQRLAVLNGDAKVTVTLECQRCGKPFTHQVYTTYCFSPVRSDEQAEALPEAYEPIEVNEFGEIDLLAMVEDEIILALPVVPVHDSEHCEVSEADMVFGELPEEAQKPNPFAVLASLKRKEGGSHHHHHH	soluble
